2 variants from IntAct's records for PubMed 24105263 can be followed below.

B1: Vesicle-associated membrane protein-associated protein A (Homo sapiens), Q9P0L0 (parent)
chain: MASASGAMAKHEQILVLDPPTDLKFKGPFTDVVTTNLKLRNPSDRKVCFKVKTTAPRRYCVRPNSGIIDPGSTVTVSVMLQPFDYDPNEKSKHKFMVQTIFAPPNTSDMEAVWKEAKPDELMDSKLRCVFEMPNENDKLNDMEPSKAVPLNASKQDGPMPKPHSVSLNDTETRKLMEECKRLQGEMMKLSEENRHLRDEGLRLRKVAHSDKPGSTSTASFRDNVTSPLPSLLVVIAAIFIGFFLGKFIL
partner: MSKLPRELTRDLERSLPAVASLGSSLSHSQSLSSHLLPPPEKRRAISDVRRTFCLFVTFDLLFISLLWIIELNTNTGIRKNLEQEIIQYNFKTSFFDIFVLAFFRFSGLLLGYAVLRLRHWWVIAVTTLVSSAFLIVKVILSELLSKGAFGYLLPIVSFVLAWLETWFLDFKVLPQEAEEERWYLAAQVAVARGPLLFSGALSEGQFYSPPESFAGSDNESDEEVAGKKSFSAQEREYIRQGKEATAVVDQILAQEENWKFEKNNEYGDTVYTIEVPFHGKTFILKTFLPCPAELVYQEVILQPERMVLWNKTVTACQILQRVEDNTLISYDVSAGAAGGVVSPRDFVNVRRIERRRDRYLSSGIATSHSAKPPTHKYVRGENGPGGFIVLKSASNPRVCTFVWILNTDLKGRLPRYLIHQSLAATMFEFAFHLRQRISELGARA
B2: Vesicle-associated membrane protein-associated protein A (Homo sapiens), Q9P0L0 (parent)
chain: B1 chain
partner: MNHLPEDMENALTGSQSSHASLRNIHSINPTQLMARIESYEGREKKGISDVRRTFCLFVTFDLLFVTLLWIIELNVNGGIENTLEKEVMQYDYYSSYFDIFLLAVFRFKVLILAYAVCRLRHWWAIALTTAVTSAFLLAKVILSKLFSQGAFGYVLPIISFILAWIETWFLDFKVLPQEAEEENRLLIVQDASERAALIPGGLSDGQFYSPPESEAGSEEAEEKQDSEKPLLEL

The variants in one test derive from B1. Particulars: with STARD3, Q14849-1.
Take MASASGAMAKHEQILVLDPPTDLKFKGPFTDVVTTNLKLRNPSDRKVCFKVKTTAPRRYCVRPNSGIIDPGSTVTVSVMLQPFDYDPNEKSKHDFDVQTIFAPPNTSDMEAVWKEAKPDELMDSKLRCVFEMPNENDKLNDMEPSKAVPLNASKQDGPMPKPHSVSLNDTETRKLMEECKRLQGEMMKLSEENRHLRDEGLRLRKVAHSDKPGSTSTASFRDNVTSPLPSLLVVIAAIFIGFFLGKFIL [K94D;M96D]: the “effect of a mutation on the interaction” value was “decreasing interaction strength”.

Variants of B2 are the subject of the next test. Particulars: with STARD3NL.
Turning to MASASGAMAKHEQILVLDPPTDLKFKGPFTDVVTTNLKLRNPSDRKVCFKVKTTAPRRYCVRPNSGIIDPGSTVTVSVMLQPFDYDPNEKSKHDFDVQTIFAPPNTSDMEAVWKEAKPDELMDSKLRCVFEMPNENDKLNDMEPSKAVPLNASKQDGPMPKPHSVSLNDTETRKLMEECKRLQGEMMKLSEENRHLRDEGLRLRKVAHSDKPGSTSTASFRDNVTSPLPSLLVVIAAIFIGFFLGKFIL [K94D;M96D], the “effect of a mutation on the interaction” value is “decreasing interaction strength”.
